Square brackets hold non-standard residues; d marks the D form. Phe(4-NO2) = N[C@@H](Cc1ccc([N+](=O)[O-])cc1)C(=O)O; Phe(4-Cl) = N[C@@H](Cc1ccc(Cl)cc1)C(=O)O; GABA = NCCCC(=O)O; Sar = CNCC(=O)O
What was measured:
Test in all cases: cell-based or functional assay
[1] = biological target: Kappa opioid receptor (KOR) (Homo sapiens (Human), UniProt P41145 1-380)
[2] = biological target: Delta opioid receptor (DOR)
Mu opioid receptor (MOR) [3] = biological target: Mu opioid receptor (MOR)
[4] = biological target: Delta opioid receptor (DOR); remark: listed apart in the source
Mu opioid receptor (MOR) [5] = biological target: Mu opioid receptor (MOR); remark: listed apart in the source

Mu opioid receptor (MOR), sequence (P35372 whole entry): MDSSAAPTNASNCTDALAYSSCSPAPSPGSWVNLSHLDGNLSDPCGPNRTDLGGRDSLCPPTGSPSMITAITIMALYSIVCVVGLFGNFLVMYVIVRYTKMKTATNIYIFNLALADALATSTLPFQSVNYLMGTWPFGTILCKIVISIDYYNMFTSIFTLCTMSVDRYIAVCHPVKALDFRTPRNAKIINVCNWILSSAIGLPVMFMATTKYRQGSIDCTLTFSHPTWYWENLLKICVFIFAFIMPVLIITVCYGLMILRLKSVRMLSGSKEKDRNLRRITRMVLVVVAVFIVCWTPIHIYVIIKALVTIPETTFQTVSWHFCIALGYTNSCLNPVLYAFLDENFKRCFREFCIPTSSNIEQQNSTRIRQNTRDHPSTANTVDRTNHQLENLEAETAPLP
Kappa opioid receptor (KOR), sequence (P41145 whole entry, form in doubt): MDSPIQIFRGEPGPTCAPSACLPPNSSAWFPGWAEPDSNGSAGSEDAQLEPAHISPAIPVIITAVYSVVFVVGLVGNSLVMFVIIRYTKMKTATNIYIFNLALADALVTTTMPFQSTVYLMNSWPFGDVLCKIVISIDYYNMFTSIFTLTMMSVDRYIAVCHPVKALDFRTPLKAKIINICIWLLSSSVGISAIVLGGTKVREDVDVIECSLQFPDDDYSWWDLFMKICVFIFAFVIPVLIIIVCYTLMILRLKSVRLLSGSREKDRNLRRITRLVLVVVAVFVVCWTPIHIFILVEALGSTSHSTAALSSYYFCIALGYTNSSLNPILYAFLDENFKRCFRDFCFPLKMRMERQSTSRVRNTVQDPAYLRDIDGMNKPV

| Binder | cAMP assay (ALPHAScreen), result at 1 µM peptide [1] | cAMP assay (ALPHAScreen), result at 10 µM peptide [1] | cAMP assay (ALPHAScreen), result at 1 µM peptide [2] | cAMP assay (ALPHAScreen), result at 10 µM peptide [2] | cAMP assay (ALPHAScreen), result at 1 µM peptide (Mu opioid receptor (MOR) [3]) | cAMP assay (ALPHAScreen), result at 10 µM peptide (Mu opioid receptor (MOR) [3]) | Activity (EC50, nM), cAMP assay [4] [nM] | Activity (EC50, nM), cAMP assay (Mu opioid receptor (MOR) [5]) [nM] |
| --- | --- | --- | --- | --- | --- | --- | --- | --- |
| H-Y[Sar]FL[dR]R-NH2 [SEQ ID NO. 6: NH2-Tyr-Sar-Phe-Leu-DArg-Arg-NH2] | 14.2 | 35.1 | -0.03 | 2.25 | 1.04 | 7.84 |  |  |
| H-F[Sar][Phe(4-NO2)]L[dR][dR]-NH2 (SMILES CC(C)C[C@H](NC(=O)[C@H](Cc1ccc([N+](=O)[O-])cc1)NC(=O)CN(C)C(=O)[C@@H](N)Cc1ccccc1)C(=O)N[C@H](CCCNC(=N)N)C(=O)N[C@H](CCCNC(=N)N)C(N)=O) [SEQ ID NO. 9: NH2-Phe-Sar-(4-NO2)Phe-Leu-DArg-DArg-NH2] | 2.46 | 23.1 | -0.5 | 1.83 | -0.97 | -0.64 |  |  |
| H-Y[Sar]FL[dR][dR]-NH2 [SEQ ID NO. 7: NH2-Tyr-Sar-Phe-Leu-DArg-DArg-NH2] | 18.3 | 36 | -0.68 | 2.53 | 0.13 | 4.19 |  |  |
| H-Y[Sar][Phe(4-NO2)]L[dR]R-NH2 [SEQ ID NO. 5: NH2-Tyr-Sar-(4-NO2)Phe-Leu-DArg-Arg-NH2] | 33.4 | 43.1 | 0.05 | 2.02 | -0.05 | 4.32 |  |  |
| H-Y[Sar][Phe(4-Cl)]LR[dR]-{C7H14‑CONH2} [SEQ ID NO. 24: NH2-Tyr-Sar-(4-Cl)Phe-Leu-Arg-DArg-C7H14-CONH2] |  |  |  |  |  |  | > 10000 | > 10000 |
| H-Y[Sar][Phe(4-NO2)]LRX-NH2 (not fully specified (residue 6); printed as NH2-Tyr-Sar-(4-NO2)Phe-Leu-Arg-NMA-NH2) [SEQ ID NO. 18: NH2-Tyr-Sar-(4-NO2)Phe-Leu-Arg-NMA-NH2] |  |  |  |  |  |  | > 10000 | > 10000 |
| H-Y[Sar][Phe(4-Cl)]LR[dR]IR-NH2 [SEQ ID NO. 20: NH2-Tyr-Sar-(4-Cl)Phe-Leu-Arg-DArg-Ile-Arg-NH2] |  |  |  |  |  |  | 3580 | > 10000 |
| H-Y[Sar][Phe(4-NO2)]L[dK][dR]-NH2 [SEQ ID NO. 10: NH2-Tyr-Sar-(4-NO2)Phe-Leu-DLys-DArg-NH2] | 8.47 | 25.1 | -3 | -0.95 | -1.27 | 0.02 |  |  |
| H-Y[GABA]FLRR-NH2 (SMILES CC(C)C[C@H](NC(=O)[C@H](Cc1ccccc1)NC(=O)CCCNC(=O)[C@@H](N)Cc1ccc(O)cc1)C(=O)N[C@@H](CCCNC(=N)N)C(=O)N[C@@H](CCCNC(=N)N)C(N)=O) [SEQ ID NO. 1: NH2-Tyr-Gaba-Phe-Leu-Arg-Arg-NH2] | 4.23 | 22.9 | 2.57 | 19.6 | -6.78 | 7.28 |  |  |
